Results on seven substances are retold here after patent US20150210998A1.

The target of test [1] is His6-E6AP ligase (full-length, baculovirus-expressed) (human) (UniProt Q05086). In words: concentration dependence of inhibition of E6AP-catalyzed polyubiquitin chain formation.
The target is the same in test [2]. In words: non-competitive inhibition with respect to [UbcH7]o of His6-E6AP chain formation.
Test [3] concerns the target GST-E6AP ligase (wild-type, bacterially expressed fusion protein) (human) (UniProt Q05086). In words: inhibition of GST-E6AP-catalyzed 125I-polyubiquitin chain formation, nonlinear hyperbolic regression.
The target is the same in test [4]. In words: calculated from the Ki of inhibition of chain formation.
Test [5] has as its target His6-E6AP ligase (full-length, baculovirus-expressed) (human) (UniProt Q05086). In words: activation kinetics of His6-E6AP-catalyzed 125I-polyubiquitin chain formation (non-essential activator, double reciprocal plot).
In another test the target is GST-E6APY533A (human) (UniProt Q05086). Put plainly: cell-based or functional assay.
Test [6] concerns the target His6-E6AP ligase (full-length, baculovirus-expressed) (human) (UniProt Q05086). Put plainly: cell-based or functional assay.
For another test, the target named is GST-E6APR626A (human) (UniProt Q05086). In words: cell-based or functional assay.
Test [7] has as its target GST-E6AP ligase (wild-type, bacterially expressed fusion protein) (human) (UniProt Q05086). Put plainly: inhibition of GST-E6AP-catalyzed 125I-polyubiquitin chain formation.
Test [8] deals with His6-E6AP ligase (full-length, baculovirus-expressed) (human) (UniProt Q05086). Put plainly: non-competitive inhibition with respect to [UbcH7]o of E6AP chain formation.

GST-E6APY533A (human), sequence (Q05086 other isoform, or with tags, fused parts or gaps): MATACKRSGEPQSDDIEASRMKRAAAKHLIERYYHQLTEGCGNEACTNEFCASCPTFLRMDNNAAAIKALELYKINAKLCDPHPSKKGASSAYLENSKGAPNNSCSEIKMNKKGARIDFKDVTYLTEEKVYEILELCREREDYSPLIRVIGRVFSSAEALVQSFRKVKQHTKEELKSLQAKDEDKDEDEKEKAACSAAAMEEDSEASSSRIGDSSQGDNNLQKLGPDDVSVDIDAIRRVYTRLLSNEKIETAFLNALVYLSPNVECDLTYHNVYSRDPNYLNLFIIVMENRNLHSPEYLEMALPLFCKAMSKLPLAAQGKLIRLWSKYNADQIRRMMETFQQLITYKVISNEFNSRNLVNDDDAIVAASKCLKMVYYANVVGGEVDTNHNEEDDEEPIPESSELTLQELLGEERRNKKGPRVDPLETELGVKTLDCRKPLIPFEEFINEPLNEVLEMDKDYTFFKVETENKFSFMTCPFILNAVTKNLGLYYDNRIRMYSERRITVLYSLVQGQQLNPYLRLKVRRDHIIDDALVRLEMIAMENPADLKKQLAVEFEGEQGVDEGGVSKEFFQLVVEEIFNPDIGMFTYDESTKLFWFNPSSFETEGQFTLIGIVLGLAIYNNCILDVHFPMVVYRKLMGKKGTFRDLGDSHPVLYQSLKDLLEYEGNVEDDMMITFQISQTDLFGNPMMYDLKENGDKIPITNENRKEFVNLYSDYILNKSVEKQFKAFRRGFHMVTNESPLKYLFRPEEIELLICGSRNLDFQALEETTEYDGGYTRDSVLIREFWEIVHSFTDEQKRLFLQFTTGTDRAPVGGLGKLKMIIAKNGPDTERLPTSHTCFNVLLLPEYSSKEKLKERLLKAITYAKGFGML
E6AP-HectC820A (thrombin-processed), sequence (Q05086 473-875 C843A limits assumed): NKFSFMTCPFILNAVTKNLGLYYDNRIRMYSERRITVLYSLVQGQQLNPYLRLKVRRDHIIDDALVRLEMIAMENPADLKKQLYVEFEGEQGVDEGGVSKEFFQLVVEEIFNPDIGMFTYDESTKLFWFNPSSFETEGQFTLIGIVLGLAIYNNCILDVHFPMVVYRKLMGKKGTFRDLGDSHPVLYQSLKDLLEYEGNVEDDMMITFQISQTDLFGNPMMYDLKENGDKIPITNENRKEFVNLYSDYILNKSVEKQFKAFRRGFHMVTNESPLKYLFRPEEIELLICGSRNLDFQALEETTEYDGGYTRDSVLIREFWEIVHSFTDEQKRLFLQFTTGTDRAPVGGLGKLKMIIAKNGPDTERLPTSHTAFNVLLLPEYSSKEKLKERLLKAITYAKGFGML
GST-E6AP-HectC820A, sequence (Q05086 473-875 C843A): as the sequence (Q05086 473-875 C843A limits assumed) above
GST-E6APR626A (human), sequence (Q05086 other isoform, or with tags, fused parts or gaps): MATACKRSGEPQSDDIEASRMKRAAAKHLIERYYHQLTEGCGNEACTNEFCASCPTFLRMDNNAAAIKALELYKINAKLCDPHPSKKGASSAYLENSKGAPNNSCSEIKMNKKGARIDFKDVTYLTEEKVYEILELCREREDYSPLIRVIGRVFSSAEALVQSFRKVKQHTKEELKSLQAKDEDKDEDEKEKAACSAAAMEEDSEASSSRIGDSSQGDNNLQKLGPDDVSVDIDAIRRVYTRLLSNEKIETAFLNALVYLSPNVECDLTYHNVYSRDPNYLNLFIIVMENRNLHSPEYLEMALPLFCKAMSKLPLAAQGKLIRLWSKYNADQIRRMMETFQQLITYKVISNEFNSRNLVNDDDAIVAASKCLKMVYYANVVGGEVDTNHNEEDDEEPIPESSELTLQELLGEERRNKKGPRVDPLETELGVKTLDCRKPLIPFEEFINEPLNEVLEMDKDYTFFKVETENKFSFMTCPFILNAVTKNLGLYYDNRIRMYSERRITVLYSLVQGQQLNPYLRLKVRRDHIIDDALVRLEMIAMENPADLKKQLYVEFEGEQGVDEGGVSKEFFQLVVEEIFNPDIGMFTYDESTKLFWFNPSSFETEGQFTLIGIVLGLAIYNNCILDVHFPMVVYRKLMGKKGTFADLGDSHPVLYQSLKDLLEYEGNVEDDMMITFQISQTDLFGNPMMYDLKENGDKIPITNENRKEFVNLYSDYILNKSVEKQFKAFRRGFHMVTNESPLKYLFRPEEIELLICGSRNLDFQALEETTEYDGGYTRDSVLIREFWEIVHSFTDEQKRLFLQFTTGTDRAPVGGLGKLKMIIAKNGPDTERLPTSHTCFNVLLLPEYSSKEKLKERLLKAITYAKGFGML

Regarding “E6(HPV16)Δ91 N-terminal domain (from UniProt P03126 1-91)”, the Ki in test [1] is 4 µM; in test [2], 6 µM.
In test [3], “GST-E6APΔ495 (from UniProt Q05086 1-495)” came in with a Ki of 12 µM. Besides, the ΔGbinding in test [4] is -6.7 kcal/mol.
“HPV16 E6 protein (recombinant, full-length) (from UniProt P03126 1-158)” returned a Kd in test [5] of 0.0015 µM. Also, the increase in rate of 125I-polyubiquitin chain formation with 20 nM E6 in the test with GST-E6APY533A (human) turned out to be 8 fold; in the test with GST-E6APR626A (human), 13 fold. Also, in test [6], the stimulation in E6AP ligase activity at saturating E6 protein was 14 fold.
In the case of “E6APΔ495 (thrombin-processed) (from UniProt Q05086 1-495)”, the Ki in test [3] amounted to 19 µM. The ΔGbinding in test [4] was -6.4 kcal/mol.
Consider “GST-E6AP-HectC820A (from UniProt Q05086 450-852)”, for which the Ki in test [7] was 31 µM.
“E6AP-HectC820A (thrombin-processed) (from UniProt Q05086 450-852)” registered an inhibitory constant (Ki) in test [7] of 27 µM.
On to “E6(HPV16)Ct C-terminal domain (from UniProt P03126 89-158)”, for which the Ki in [8] was determined as 4 µM. This counts as single-digit micromolar.

The term Ki denotes the dissociation constant of the complex between target and ligand, obtained from inhibition or displacement. Higher therefore signals weaker binding. A word on the Kd: it is the free concentration of one partner at which half of the binding sites on the other are occupied at equilibrium, for simple one-to-one binding. Read a low Kd as higher affinity.
